This note sets out measurements from US20190048074A1 (Regeneron, published 2019).

Holding throughout (test): cell-based or functional assay
Assay [1] has as its target T1, full-length human APLNR (human, UniProt P35414 1-380).
T1 sequence: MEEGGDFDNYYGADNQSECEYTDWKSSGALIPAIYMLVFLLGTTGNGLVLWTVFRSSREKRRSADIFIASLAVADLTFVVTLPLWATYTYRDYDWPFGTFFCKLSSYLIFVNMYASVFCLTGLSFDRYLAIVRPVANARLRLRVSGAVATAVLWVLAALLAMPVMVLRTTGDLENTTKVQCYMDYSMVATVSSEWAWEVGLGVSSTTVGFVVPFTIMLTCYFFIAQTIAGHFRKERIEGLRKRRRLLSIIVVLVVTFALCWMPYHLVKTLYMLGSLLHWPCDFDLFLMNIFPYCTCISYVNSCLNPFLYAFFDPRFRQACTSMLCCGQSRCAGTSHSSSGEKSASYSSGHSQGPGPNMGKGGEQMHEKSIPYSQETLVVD

The target in assay [2] is T2, human Apelin receptor (hAPLNR) in PathHunter eXpress AGTRL1 CHO-K1 β-Arrestin cells (human, UniProt P35414 1-380).
T2 sequence: T1 sequence

Assay [3] addresses T1, full-length human APLNR. The source holds these as a separate data set.

B1: H4H9093P (antibody, V domains shown)
VH: EVQLVESGGGLVKPGGSLRLSCAASGITFSNAWMSWVRQAPGKGLEWVGRFKGKADGGTVDYAAPVKGRFTISRDDSKNTLYLQMNSLKNEDTAVYYCTTGRITMVRGVLGYWGQGTLVTVSS
VL: not shown
As for B1, the % Inhibition (in general, the percentage by which the read-out fell short of the control) at 100 nM mAb, in the presence of 100 ρM Apelin (at 7.5 µM Forskolin) in the assay with full-length human APLNR [1] was determined as 3%. Also, the “% Activation at 500 nM antibody or Apelin-antibody fusion” value in assay [2] worked out at 2%.

B2: H4H9209N (antibody, V domains shown)
VH: EVQLLESGGGLVQPGGSLRLSCAASGFTFSNYAMNWVRQAPGRGLEWVSAIHYDGSNSYYADSVKGRFTISRDNSKNTLYLQMNSLRAEDTAIYYCAILSRVYWGQGTLVTVSS
VL: DIQMTQSPSSLSASVGDRVTITCRASQGINNYLAWFQQKPGKAPKSLIYATSSLQSGVPSKFSGSGSGTDFTLTISSLQPEDFATYYCQQYNSYPLTFGGGTKVEIK
As for B2, in the assay with full-length human APLNR [3], the “% Inhibition at 100 nM mAb, in the presence of 100 ρM Apelin (at 10 µM Forskolin)” value came out at 16% and the “IC50 [M], in the presence of 100 ρM Apelin (at 10 µM Forskolin)” value is 5.9e-09 M.
